From PMC4267619

Tests used:
YT521-B YTH domain [1] = target: T1, YT521-B YTH domain (Rattus norvegicus, UniProt Q9QY02 347-502); assay: ITC; 20 C; 410 uM RNA into 14 uM protein; 25 mM NaH2PO4, 25 mM NaCl, 10 mM beta-mercaptoethanol, pH 7; ITC and NMR titrations at 20 C, structure at 30 C
YT521-B YTH domain [2] = target: T1, YT521-B YTH domain; assay: ITC; 20 C; 125 uM RNA into 10 uM protein; 25 mM NaH2PO4, 25 mM NaCl, 10 mM beta-mercaptoethanol, pH 7; ITC and NMR titrations at 20 C, structure at 30 C

Binder	Kd (YT521-B YTH domain [1])	Kd (YT521-B YTH domain [2])
UGACAC (ssRNA) [5'-UGACAC-3']	5000 nM	–
UGACAC (ssRNA, N6-methyladenosine at position 3) [5'-UGm6ACAC-3']	–	100 nM
